Laboratory results from patent US20230265187A1 (published 2023).

T1: human TIGIT on Jurkat cells (TIGIT/NFAT reporter Jurkat cells, BPS Bioscience #60538); Promega TIGIT Effector … (human, UniProt Q495A1 22-244)
T1 construct: whole, on cells; Same protein on two bought Jurkat lines (flow cytometry: BPS; bioassay: Promega); also called hu TIGIT cells; cells expressing human TIGIT
T1 sequence (looked up): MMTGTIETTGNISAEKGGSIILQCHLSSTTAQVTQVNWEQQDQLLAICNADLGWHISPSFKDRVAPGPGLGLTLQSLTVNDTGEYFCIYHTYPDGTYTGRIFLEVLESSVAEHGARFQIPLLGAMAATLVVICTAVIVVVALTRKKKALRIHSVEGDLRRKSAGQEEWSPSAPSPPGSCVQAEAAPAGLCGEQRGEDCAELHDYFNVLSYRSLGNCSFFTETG

T2: his-tagged human TIGIT (Acro Biosystems #TIT-H52H3) (human, UniProt Q495A1 22-141)
T2 construct: Bought protein; also called His-tagged-TIGIT (human); not shown: his tag
T2 sequence (looked up): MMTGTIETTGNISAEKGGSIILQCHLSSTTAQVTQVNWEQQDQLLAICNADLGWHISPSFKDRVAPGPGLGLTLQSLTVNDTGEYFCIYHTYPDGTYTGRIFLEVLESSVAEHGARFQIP

T3: his-tagged murine TIGIT (Acro Biosystems #TIT-M52E6) (murine, UniProt P86176 29-148, limits assumed)
T3 construct: Bought protein; also called mouse his-tagged TIGIT; not shown: his tag
T3 sequence (looked up): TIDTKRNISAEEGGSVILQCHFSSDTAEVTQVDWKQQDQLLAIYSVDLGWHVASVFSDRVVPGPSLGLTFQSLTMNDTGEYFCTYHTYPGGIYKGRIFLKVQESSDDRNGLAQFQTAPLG


Tests used:
[1] = biological target: T1, human TIGIT on Jurkat cells (TIGIT/NFAT …); assay: flow cytometry, TIGIT/NFAT Jurkat cells, 10 ug/ml
[2] = biological target: T2, his-tagged human TIGIT (Acro Biosystems …); assay: SPR (Carterra LSA), scFv-Fc captured, His-TIGIT analyte
Outline: (§1)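 SPR: scFv-Fc from supernatants (diluted 30-fold in HBSTE) captured on anti-human Fc-coupled HC30M chip; His-tagged TIGIT injected as 1:2 dilution series. Kinetic affinities fitted from sensorgrams.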

[3] = biological target: T3, his-tagged murine TIGIT (Acro …); assay: as above
Outline: as §1

[4] = biological target: T4, His-tagged cynomolgus monkey TIGIT (Acro Biosystems #TIT-05223) (cynomolgus monkey, UniProt A0A7N9I9V4 89-209); assay: as above
T4 construct: Bought protein; also called cyno TIGIT; cynomolgus TIGIT; not shown: His tag
T4 sequence (A0A7N9I9V4 entry or part of it): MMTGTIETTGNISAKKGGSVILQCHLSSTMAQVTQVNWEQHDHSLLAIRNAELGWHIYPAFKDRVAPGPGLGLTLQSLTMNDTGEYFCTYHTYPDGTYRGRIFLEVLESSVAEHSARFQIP
Outline: as §1

[5] = biological target: T2, his-tagged human TIGIT (Acro Biosystems …); assay: ELISA, coated His-TIGIT, 1 ug/ml
[6] = biological target: T3, his-tagged murine TIGIT (Acro …); assay: ELISA, coated His-TIGIT, 1 ug/ml
[7] = biological target: T4, His-tagged cynomolgus monkey TIGIT …; assay: ELISA, coated His-TIGIT, 1 ug/ml
[8] = biological target: T1, human TIGIT on Jurkat cells (TIGIT/NFAT …); assay: cell-based or functional assay
[9] = biological target: T3, his-tagged murine TIGIT (Acro …); assay: SPR (Carterra LSA), scFv-Fc captured, His-TIGIT analyte; repeat
Protocol: (§2) Binding affinities of anti-TIGIT antibodies to human, cyno, and murine TIGIT were measured by Surface Plasmon Resonance (SPR) on a Carterra LSA instrument. Goat anti-human Fc antibody was amine coupled to a HC30M chip. ScFv-Fc supernatants were diluted 30-fold with HBSTE and were captured by the anti-human Fc coupled HC30M chip. A 1:2 dilution series of his-tagged human TIGIT, starting at 400 nM, was injected onto the chip for binding. A dilution series was also carried out for cyno TIGIT and murine TIGIT. Data were analyzed using the Carterra™ Kinetics software.

[10] = biological target: T4, His-tagged cynomolgus monkey TIGIT …; assay: as above
Protocol: as §2

Row | Binder | MFI [1] | Kd [2] | Kd [3] | Kd [4] | Elisa OD450 [5] | Elisa OD450 [6] | Elisa OD450 [7] | max. signal (% of 22G2) [8] | Kd [9] | Kd [10]
1 | 43586p1.2.E1 (scFv, V domains shown) VH: EVQLLESGGGLVQPGGSLRLSCAASGFTFSDYLMTWVRQAPGKELEWVSTITWDGDRTYYADSVKGRFTISRDNSKNTLYLQMNSLRAEDTAVYYCAKHWTVFQYGMDVWGQGTTVTVSS VL: QSVLTQPPSASGTPGQRVTISCSGTISNIEIKYVSWYQQLPGTAPKLLIYGNHQRPSGVPDRFSGSKSGTSASLAISGLQSEDEADYYCSSWENDLKSWVFGGGTKLTVL | 9480 MFI | 0.029 nM | 7.34 nM | 6.27 nM | 2.25 OD450 | 2.11 OD450 | 1.85 OD450 | 111 % of 22G2 | 22 nM | 3.2 nM
2 | 43586p1.2.G4 (scFv, V domains shown) VH: EVQLLESGGGLVQPGGSLRLSCAASGFTFDDYVMSWVRQAPGKGLEWVSLINWNGDKTYYADSVKGRFTISRDNSKNTLYLQMNSLRAEDTAVYYCARHWIVFQYGLDVWGQGTTVTVSS VL: QSVLTQPLSASGTPGQRVTISCSGVSSNIEIKYVSWYQQLPGTAPKLLIYNSHQRPSGVPDRFSGSKSGTSASLAISGLQSEDEADYYCTSWDDRLKSWVFGGGTKLTVL | 9340 MFI | 0.394 nM | 6.89 nM | 3.19 nM | 2.02 OD450 | 2.04 OD450 | 1.88 OD450 | 101 % of 22G2 | 4.8 nM | 0.582 nM
3 | 43586p1.2.E4 (scFv, V domains shown) VH: EVQLLESGGGLVQPGGSLRLSCAASGFTFSDYLMTWVRQAPGKGLEWVSTITWDGDRTYYADSVKGRFTISRDNSKNTLYLQMNSLRAEDTAVYYCAKHWTVFQYGMDVWGQGTTVTVSS VL: QSVLTQPPSASGTPGQRVTISCSGTISNIEIKYVSWYQQLPGTAPKLLIYGNHQRPSGVPDRFSGSKSGTSASLAISGLQSEDEADYYCSSWENDLKSWVFGGGTKLTVL | 9550 MFI | 0.117 nM | 66.5 nM | 25.4 nM | 2.09 OD450 | 2.03 OD450 | 1.86 OD450 | 113 % of 22G2 | 18 nM | 2.8 nM
4 | 43586p1.2.F9 (scFv, V domains shown) VH: EVQLLESGGGLVQPGGSLRLSCAASGFTFDDYVMSWVRQAPGKGLEWVSLINWNGDKTYYADSVKGRFTISRDNSKNTLYLQMNSLRAEDTAIYYCAKHWIVFQYGMDVWGRGTTVTVSS VL: QSVLTQPPSASGTPGQRVTISCSGSISNIETKYVSWYQQLPGTAPKLLIYNSDQRPSGVPDRFSGSKSGTSASLAISGLQSEDEADYYCVSWDASLKSWVFGGGTKLTVL | 9110 MFI | 0.338 nM | 4.95 nM | 12.2 nM | 2 OD450 | 2.14 OD450 | 1.71 OD450 | 127 % of 22G2 | 2.1 nM | 2 nM
5 | 43586p1.2.E2 (scFv, V domains shown) VH: EVQLLESGGGLVQPGGSLRLSCAASGFTFTSYLMSWVRQAPGKGLEWVSTITWDGDRTYYADSVKGRFTISRDNSKNTLYLQMNSLRVGDTAVYYCAKHWTVFQYGMDVWGQGTTVTVSS VL: QSVLTQPASASGTPGQRVTISCSGTISNIETKYVSWYQQLPGTAPKLLIYGNHQRPSGVPDRFSGSKSGTSASLAISGLQSEDEADYYCASWENDLKSWVFGGGTKLTVL | 9320 MFI | 0.0486 nM | 122 nM | 9.5 nM | 2.02 OD450 | 1.78 OD450 | 1.73 OD450 | 125 % of 22G2 | 67 nM | 4.8 nM
